Literature values as cited in PMC3373023.

How the values were obtained:
Asp27 = Asp27 (UniProt position 156, PLCGSDNKTYG)
Asp7 = Asp7 (UniProt position 136, AAVSVDCSEYP)
Glu10 = Glu10 (UniProt position 139, SVDCSEYPKPA)
Glu19 = Glu19 (UniProt position 148, PACTLEYRPLC)
Glu43 = Glu43 (UniProt position 172, CNAVVESNGTL)
His52 = His52 (UniProt position 181, TLTLSHFGKC-)
Lys13 = Lys13 (UniProt position 142, CSEYPKPACTL)
Lys29 = Lys29 (UniProt position 158, CGSDNKTYGNK)
Lys34 = Lys34 (UniProt position 163, KTYGNKCNFCN)
Lys55 = Lys55 (UniProt position 184, LSHFGKC----)
Tyr11 = Tyr11 (UniProt position 140, VDCSEYPKPAC)
Tyr20 = Tyr20 (UniProt position 149, ACTLEYRPLCG)
Tyr31 = Tyr31 (UniProt position 160, SDNKTYGNKCN)
Asp42 = Asp42 (UniProt position 63, KRGCADNCPKN)
Asp59 = Asp59 (UniProt position 80, VCCSTDKCN--)
Glu17 = Glu17 (UniProt position 38, YKTCPEGKNLC)
His4 = His4 (UniProt position 25, YTLKCHNTQLP)

| Substance | pKa (Asp27) | pKa (Asp7) | pKa (Glu10) | pKa (Glu19) | pKa (Glu43) | pKa (His52) | pKa (Lys13) | pKa (Lys29) | pKa (Lys34) | pKa (Lys55) | pKa (Tyr11) | pKa (Tyr20) | pKa (Tyr31) | pKa (Asp42) | pKa (Asp59) | pKa (Glu17) | pKa (His4) |
| --- | --- | --- | --- | --- | --- | --- | --- | --- | --- | --- | --- | --- | --- | --- | --- | --- | --- |
| Turkey ovomucoid third domain (OMTKY3) (Meleagris gallopavo) | ≤2.3 | ≤2.7 | 4.2 | 3.2 | 4.8 | 7.5 | 9.9 | 11.1 | 10.1 | 11.1 | 10.2 | 11.1 | >12.5 |  |  |  |  |
| Cardiotoxin V (CTX A5, cardiotoxin A5) (Naja naja atra (Naja atra, Taiwan cobra)) |  |  |  |  |  |  |  |  |  |  |  |  |  | 3.2 | <2.3 | 4.0 | 5.6 |
